The labels stand for the following.
B1: VH1/Vκ2 (antibody, IgG4, V domains shown)
VH: EVQLLESGGGLVQPGGSLRLSCAASGFIFSSHGMSWVRQAPGKGLEWVATISSGGTYTYYPDSVKGRFTISRDNSKNTLYLQMNSLKAEDTAMYYCARHDFDYDAAWFAYWGQGTLVTVSS
VL: EIVLTQSPATLSLSPGERATLSCRANSSVSYMYWYQQKPGQAPRPWIYLTSNRATGVPARFSGSGSGTDYTLTISSLEPEDFATYYCQQWSSNPPTFGQGTKLEIK
notes: IgG4 (S241P), kappa
B2: VH1/Vκ10 (antibody, IgG4, V domains shown)
VH: B1 VH
VL: B1 VL with V57I, Y70F
notes: IgG4 (S241P), kappa
B3: VH2/Vκ7 (antibody, IgG4, V domains shown)
VH: B1 VH with K87R
VL: B1 VL with Y70F
notes: IgG4 (S241P), kappa
B4: VH2/Vκ9 (antibody, IgG4, V domains shown)
VH: B1 VH with K87R
VL: B1 VL with W46L
notes: IgG4 (S241P), kappa
B5: VH1/Vκ8 (antibody, IgG4, V domains shown)
VH: B1 VH
VL: B1 VL with T84V
notes: IgG4 (S241P), kappa
B6: VH1/Vκ12 (antibody, IgG4, V domains shown)
VH: B1 VH
VL: B1 VL with W46L, V57I
notes: IgG4 (S241P), kappa
B7: VH2/Vκ8 (antibody, IgG4, V domains shown)
VH: B1 VH with K87R
VL: B1 VL with T84V
notes: IgG4 (S241P), kappa
B8: VH1/Vκ9 (antibody, IgG4, V domains shown)
VH: B1 VH
VL: B1 VL with W46L
notes: IgG4 (S241P), kappa
B9: VH1/Vκ7 (antibody, IgG4, V domains shown)
VH: B1 VH
VL: B1 VL with Y70F
notes: IgG4 (S241P), kappa

Where a chain is given by its changes, count along the chain named. Names and notes keep the numbering of the source. Values joined by “and” are separate entries in the source; they are usually repeats but may differ in a detail not shown here. Equal entries are not always repeated.

For the first test, the target named is T1, CEACAM3 on transfected HeLa cells (human, UniProt P40198 35-252).
T1 construct: whole, on cells; also called HeLa-CEACAM3; HeLa C3
T1 sequence (looked up): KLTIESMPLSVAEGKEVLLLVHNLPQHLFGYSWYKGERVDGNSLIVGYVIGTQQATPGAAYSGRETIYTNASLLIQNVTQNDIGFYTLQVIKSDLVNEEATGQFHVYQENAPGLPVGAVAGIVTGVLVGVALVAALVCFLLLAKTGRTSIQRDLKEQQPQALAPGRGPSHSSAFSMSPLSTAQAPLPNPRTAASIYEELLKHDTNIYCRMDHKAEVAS
The test can be described thus: flow cytometry, transfected HeLa. In a few lines:
(§1)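 Flow cytometry on HeLa cells stably transfected with single CEACAM family members, cultured at 37° C, 5.0% CO₂ in DMEM with 10% fetal bovine serum. Cells were stained with test antibody, then a fluorochrome-conjugated isotype-specific secondary antibody, with DAPI as viability dye. Data were acquired on a Cytoflex and analysed in FlowJo. Binding selectivity is given as the staining of each transfectant.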
(In general: Flow cytometry measures light scatter and fluorescence of single cells or particles in a stream.)
In the case of B1, the binding result was “no binding”.
On the same count and under the same terms, with B2 the entry was “no binding”; with B3, “no binding”.
Turning to B4, the binding result is “no binding”.
On the same count and under the same terms, with B5 the entry was “no binding”.
On the same count and under the same terms, with B6 the entry was “no binding”; with B7, “no binding”.
On the same count and under the same terms, with B8 the entry was “no binding”; with B9, “no binding”.

The next test deals with T2, CEACAM8 on transfected HeLa cells (human, UniProt P31997 35-320).
T2 construct: whole, on cells; also called HeLa-CEACAM8; HeLa C8
T2 sequence (looked up): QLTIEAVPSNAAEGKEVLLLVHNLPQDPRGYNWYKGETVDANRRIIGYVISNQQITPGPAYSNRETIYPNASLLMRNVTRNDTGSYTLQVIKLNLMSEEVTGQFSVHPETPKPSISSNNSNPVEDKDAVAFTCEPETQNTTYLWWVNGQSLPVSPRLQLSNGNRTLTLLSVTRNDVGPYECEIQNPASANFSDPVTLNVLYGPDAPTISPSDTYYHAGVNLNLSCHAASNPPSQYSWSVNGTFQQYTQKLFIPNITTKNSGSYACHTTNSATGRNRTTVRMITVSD
The test can be described thus: flow cytometry, transfected HeLa. In a few lines:
as §1
For the molecule B1, the binding result is recorded as “no binding”.
The same measure, in the same setting: as for B2, the entry is “no binding”; as for B3, “no binding”; as for B4, “no binding”.
On the same count and under the same terms, with B5 the entry was “no binding”.
On the same count and under the same terms, with B6 the entry was “no binding”; with B7, “no binding”.
With B8, the binding result is on record as “no binding”.
Same read-out and setting: with B9 the entry was “no binding”.

A further test has as its target T3, His-tagged CEACAM1 (human, UniProt P13688 35-428).
T3 construct: 45 kDa SPR analyte; also called CEACAM1-HIS; CEACAM1 analyte
T3 sequence: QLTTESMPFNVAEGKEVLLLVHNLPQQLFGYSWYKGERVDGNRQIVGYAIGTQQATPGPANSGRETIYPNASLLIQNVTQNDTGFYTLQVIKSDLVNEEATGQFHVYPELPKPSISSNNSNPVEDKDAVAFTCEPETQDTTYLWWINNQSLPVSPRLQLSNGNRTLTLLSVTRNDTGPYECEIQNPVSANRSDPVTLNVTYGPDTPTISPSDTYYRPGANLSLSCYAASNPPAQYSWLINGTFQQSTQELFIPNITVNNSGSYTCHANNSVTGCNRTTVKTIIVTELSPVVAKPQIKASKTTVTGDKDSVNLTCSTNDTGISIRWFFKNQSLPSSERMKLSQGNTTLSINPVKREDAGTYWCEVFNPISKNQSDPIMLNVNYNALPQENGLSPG
Kind of test: SPR multi-cycle, IgG captured. On the procedure: As an alternative approach to assess the binding of the 36 antibody combinations and the three control antibodies to CEACAM1, a kinetic analysis was performed on a Biacore T200 (serial no. 1909913) running Biacore T200 Evaluation Software V2.0.1 (Uppsala, Sweden). All experiments were run at 25° C. with HBS-P+ running buffer (pH 7.4) (GE Healthcare, cat. no. BR100671). All kinetic experiments were performed using His-tagged CEACAM1 as the analyte. For all experiments, antibodies were immobilized onto a Series S Protein A sensor chip surface. For kinetic experiments, the amount of immobilized/captured ligand was limited to avoid mass transfer effects at the surface of the chip with the surface ideally having an analyte binding level (Rₘₐₓ) of 50-150 RUs. Using a MW of 45 kDa for the CEACAM1 analyte, 150 kDa for the antibody ligand (estimated value for IgG), 50 RU for Rmax and the stoichiometry (Sm) as 2 due to the ability of each antibody to bind 2 target molecules, a target response level of ˜75 RUs was set for capture of all the sample antibodies.
The signal from the reference channel Fc1 was subtracted from that of Fc2, Fc3 and Fc4 to correct for differences in non-specific binding to a reference surface, a global Rmax parameter was used in the 1-to-1 binding model. The relative Kp compared to […] was calculated by dividing the Kp of the humanized CEACAM antibody variants by that of the chimeric antibody VH0/Vκ0 on the same chip. A summary of the averaged relative Kp obtained for the 12 antibody combinations analyzed using multi cycle kinetics can be found in Table 5.
The term Kd denotes the equilibrium constant for the complex coming apart. One may read the koff as the first-order rate constant of dissociation. Usually kon stands for a measure of how fast the partners come together. In the case of B1, the Kd is 190 nM, the “average relative KD to VH0/Vκ0” value was 3.4, the koff is 0.0503 s⁻¹ and the kon was 265000 M⁻¹ s⁻¹. The “relative KD to VH0/Vκ0” value turned out to be 3.4.
As for B2, the Kd came to 180 nM, the “average relative KD to VH0/Vκ0” value came to 3.2, the koff was 0.0511 s⁻¹ and the kon is 284000 M⁻¹ s⁻¹. The “relative KD to VH0/Vκ0” value was found to be 3.2.
B3: the Kd turned out to be 71 nM, the “average relative KD to VH0/Vκ0” value was 2.3, the koff was 0.0258 s⁻¹ and the kon was determined as 362000 M⁻¹ s⁻¹. Further, the “relative KD to VH0/Vκ0” value turned out to be 2.4.
With B4, the Kd was 96 nM and 75 nM; the “average relative KD to VH0/Vκ0” value stood at 1.9.
B5: the Kd was determined as 95 nM, the “average relative KD to VH0/Vκ0” value was 1.8, the koff came to 0.0406 s⁻¹ and the kon stood at 430000 M⁻¹ s⁻¹. Also, the “relative KD to VH0/Vκ0” value was 1.8.
As for B6, the Kd worked out at 65 nM, the “average relative KD to VH0/Vκ0” value stood at 2.2, the koff was found to be 0.0268 s⁻¹ and the kon is 411000 M⁻¹ s⁻¹. Moreover, the “relative KD to VH0/Vκ0” value worked out at 2.2.
Regarding B7, the equilibrium dissociation constant (Kd) amounted to 125 nM, the “average relative KD to VH0/Vκ0” value was 2.3, the off-rate (koff) amounted to 0.0417 s⁻¹ and the kon was 334000 M⁻¹ s⁻¹. For the same molecule, the “relative KD to VH0/Vκ0” value was determined as 2.3.
With B8, the Kd was 220 nM, the “average relative KD to VH0/Vκ0” value was 4, the koff turned out to be 0.0504 s⁻¹ and the kon stood at 229000 M⁻¹ s⁻¹. For the same molecule, the “relative KD to VH0/Vκ0” value is 4.
As for B9, the dissociation constant (Kd) is 119 nM and 69 nM; the “average relative KD to VH0/Vκ0” value was determined as 2; the koff was 0.0492 s⁻¹ and 0.0352 s⁻¹; the kon was 415000 M⁻¹ s⁻¹ and 510000 M⁻¹ s⁻¹.

A further test has as its target T3, His-tagged CEACAM1. The test can be described thus: SPR single-cycle, IgG captured. In a few lines: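 Biacore T200 single-cycle kinetics at 25° C in HBS-P+ (pH 7.4): antibodies (purified or HEK EBNA supernatant, 1 μg/ml) captured on Protein A to ~75 RU, His-tagged CEACAM1 analyte at 3.125–50 nM (5-point 2-fold) at 50 μl/min without regeneration. Reference channel Fc1 subtracted.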
With B1, the Kd came to 134 nM and the “relative KD to VH0/Vκ0” value was 3.2.
The like results for B2 were, in that order, 146 nM and 3.5.
The like results for B3 were, in that order, 152 nM and 3.7.
Regarding B4, the Kd came to 110 nM and the “relative KD to VH0/Vκ0” value amounted to 2.7.
For B5 the same measures were 131 nM and 3.2.
The like results for B6 were, in that order, 143 nM and 3.5.
For B7 the same measures were 125 nM and 3.
For the molecule B8, the Kd turned out to be 142 nM and the “relative KD to VH0/Vκ0” value amounted to 3.4.
Turning to B9, the Kd was 109 nM and the “relative KD to VH0/Vκ0” value came out at 2.6.

Another test deals with T4, CEACAM6 on transfected HeLa cells (human, UniProt P40199 35-320).
T4 construct: whole, on cells; also called HeLa-CEACAM6; HeLa C6
T4 sequence (looked up): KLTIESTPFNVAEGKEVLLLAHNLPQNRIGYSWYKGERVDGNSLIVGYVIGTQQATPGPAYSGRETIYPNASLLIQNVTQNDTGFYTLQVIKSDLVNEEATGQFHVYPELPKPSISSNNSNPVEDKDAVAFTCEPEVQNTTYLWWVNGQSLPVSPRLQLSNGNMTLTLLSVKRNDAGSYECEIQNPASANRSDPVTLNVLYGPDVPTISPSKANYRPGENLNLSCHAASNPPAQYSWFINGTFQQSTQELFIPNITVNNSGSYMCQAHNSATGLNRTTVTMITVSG
The test can be described thus: flow cytometry, HeLa-CEACAM6 transfectants, % positive cells. On the procedure: Binding selectivity for CEACAM1 was tested for the 24 humanized antibody variants that bound to CEACAM1 (see Table 3), as well as the chimeric control antibody VH0/Vκ0, by flow cytometry on HeLa cells transfected with CEACAM1, 3, 5, 6 and 8. […] There was no evidence of any staining of the HeLa-CEACAM3 or HeLa-CEACAM8 transfectants. […] Due to its favorable affinity to and selectivity for CEACAM1 as well as its favorable expression level, VH1/Vκ8 was chosen as the framework for affinity maturation.
Take B1: the binding result was “no binding”.
On the same count and under the same terms, as for B2, the entry is “no binding”; as for B3, “no binding”; as for B4, “no binding”.
The same measure, in the same setting: with B5 the entry was “no binding”; with B6, “no binding”; with B7, “no binding”.
On the same count and under the same terms, as for B8, the entry is “no binding”.
With B9, the binding result is reported as “no binding”.
